Measured values as given in the RNAGym collection of RNA variant scans (doi:10.1073/pnas.2313332121).
This sample holds only a part of the variants without activity.

B1: TPR 5TU (parent)
chain: GGAUCUUCUCGAUCUAACAAAAAAGACAAAUCUGCCACAAAGCUUGAGAGCAUCUUCGGAUGCAGAGGCGGCAGCCUUCGGUGGCGCGAUAGCGCCAACGUUCUCAACUAUGACACGCAAAACGCGUGCUCCGUUGAAUGGAGUUUAUCAUG

Variants of: B1
Test: polymerase ribozyme fitness, log enrichment relative to wild type (log ratio); higher = more active; in vitro selection for triplet polymerase activity
Outline: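 Mutant libraries of both subunits of a heterodimeric triplet polymerase ribozyme were PCR-built, transcribed, and selected once in triplicate, with frozen incubation at −7 °C and capture of gel-excised extended constructs on streptavidin beads before RT-PCR. Illumina sequencing of input and output libraries was filtered to genotypes with ≥10 input reads and ≥1 read per output. Fitness is the logarithm of genotype enrichment over wild-type enrichment, using inverse-variance-weighted replicate averages. The logarithm is base 2.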

Row | Variant | polymerase ribozyme fitness (log ratio)
1 | GGAUCUUCUCGAUCUAACAAAAAAGACAAAUCUGCCACAAAGCUUGAGAGCAUCUACGGAUGCAGAGGCGGCAGCCUUCGGUGGCGCGAUAGCGCCAACGUUCUCAACUAUGACACGCAAAACGCGUGCACCGUUGAAUGGAGUUUAUCAUG [U56A U130A] | -2.03
2 | GGAUCUUCUCGAUCUAACAAAAAAGACAAAUCUGCCACAAAGCUUGAGAGCAUCUACGGAUGCAGAGGCGGCAUCCUUCGGUGGGGCGAUAGCGCCAACGUUCUCAACUAUGACACGCAAAACGCGUGCUCCUUUGAAUGGAGUUUAUCAUG [U56A G74U C85G G133U] | ≤ -4.2
3 | GGAUCUUCUCGAUCUAACAAAAAAGACAAAUCUGCCACAAAGCUUGAGAGCAUCUACUGAUGCAGAGGCGGCAGCCUUCGGUGGCGCGAUAGCGCCAACGUUCUCAACUAUGACACGCGAAACGCGUGCUACGUUGAAUGGAGUUUAUCAUG [U56A G58U A119G C131A] | -2.04
4 | GGAUCUUCUCGAUCUAACAAAAAAGACAAAUCUGCCACAAAGCUUGAGAGCAUCUACGGAUACAGAGGCGGCAGCCUUCGGUGGCGCGAUAGCGCCGACGUUAUCAACUAUGACACGCAAAACGCGUGCUCCGUUGAAUGGAGUUUAUCAUG [U56A G62A A97G C103A] | -3.45
5 | GGAUCUUCUCGAUCUAACAAAAAAGACAAAUCUGCCACAAAGCUUGAGAGCAUCUACGGAUGCAGAGGCGGCAGCCUUCGGUUGCGCGAUAGCGCCAACGUUCUCAACUAUGACACGCAAAACGCGUGCUCCGUUGAAUGGAGUUUAUCAUG [U56A G83U] | -0.976
6 | GGAUCUUCUCGAUCUAACAAAAAAGACAAAUCUGCCACAAAGCUUGAGAGCAUCUACGGAUGCAGAGGCGGCAGCCUUCGGUGGCGCGAUAGCGCCAACGUUCUCAACUAUGACACGCAAAACGCGUGCUCCGUUGAAUGGAGUGUAUCAUG [U56A U145G] | -0.287
7 | GGAUCUUCUCGAUCUAACAAAAAAGACAAAUCUGCCACAAAGCUUGAGAGCAUCUACGGAUGCAGAGGCGGCAGCCUUCGAUGGCGCGAUAGCGCCAACGUUCUCAACUAUGACACGCAAAACGCGUGCUCCGUUGAAUGGAGUUUAUCAUG [U56A G81A] | -0.577
8 | GGAUCUUCUCGAUCUAACAAAAAAGACAAAUCUGCCACAAAGCUUGAGAGCAUCUACUGAUGAAGAGGCGGCAGCCUUCGGUGGCGCGAUAGCGCCAACGUUCUCAACUAUGACUCGUAAAACGCGUGCUCCGUUGAAUGGAGUUUAUCAUG [U56A G58U C63A A115U C118U] | -1.35
9 | GGAUCUUCUCGAUCUAACAAAAAAGACAAAUCUGCCACAAAGCUUGAGAGCAUCUACGGAUGCAGAGCCGGCAGCCAUCGGUGGCGCGAUAGCGCGAACGUUCGCAAUUAUGACACGCAAAACGCGUGCUCCGUUGAAUGCAGUUUAUCAUG [U56A G68C U77A C96G U104G C108U G141C] | ≤ -4.2
10 | GGAUCUUCUCGAUCUAACAAAAAAGACAAAUCUGCCACAAAGCUUGAGAGCAUCUACGGAUGCAGAGGCGGCAGCCUUCGUUGGCGCGAUAGCGCCAACGGUCUCAACUAUGACACGCAAAACGCGUGCUCCGUUGAAUGGAGUUUAUCAUG [U56A G81U U101G] | -0.889
11 | GGAUCUUCUCGAUCUAACAAAAAAGACAAAUCUGCCACAAAGCUUGAGAGCAUCUACGGAUGCAGAGGCGGCAGCCUUCGGUCGCGCGAUAGCGCCAACGUUCUCAACUAUGACACGCAAAGCGCGUGCUCCGUUGAAUGGAGUUUAUCAUU [U56A G83C A122G G152U] | -3.94
12 | GGAUCUUCUCGAUCUAACAAAAAAGACAAAUCUGCCACAAAGCUUGAGAGCAUCUCCGGAUGCAGAGGCGGCAGCCUUCGGUGGGGCGAUAGCGCCAACGUUCUCAACUAUGACACGCAAAACGCGUGCUCCGUUGAAUGGAGUUUAUAAUG [U56C C85G C149A] | ≤ -4.2
13 | GGAUCUUCUCGAUCUAACAAAAAAGACAAAUCUGCCACAAAGCUUGAGAGCAUCUACGGAUGCAGAGGCGGCAGCCUUCGGUGCCGCGAUAGCGCCAACGUUCUCAACUAUGACACGCAAAACGCGUGCUCCGUUGAAUGGAGUUUAUCAUG [U56A G84C] | -1.66
14 | GGAUCUUCUCGAUCUAACAAAAAAGACAAAUCUGCCACAAAGCUUGAGAGCAUCUACGGAUGCAGAGGCGGCAGCCUUCGGUGUCGCGAUAGCGCCAACGUUCUCAACUAUGACACGCAAAACGCGUGCUCCGUUGAAUGGAGUUUAUCAUG [U56A G84U] | -1.11
15 | GGAUCUUCUCGAUCUAACAAAAAAGACAAAUCUGCCACAAAGCUUGAGAGCAUCUACGGAUGCAGAGGCGGCAGCCUUCGGUGGCGCGAUAGCGCCAACGGUCUCAACUAUGACACGCAAAACGCGUGCUCCGUUGAAUGGAGUUUAUCAUG [U56A U101G] | 0.0793
16 | GGAUCUUCUCGAUCUAACAAAAAAGACAAAUCUGCCACAAAGCUUGAGAGCAUCUACGGAUGCAGAGGCGGCAGCCUUCGGUGGCGCAAUAGCGCCAACGUUCUCAACUAUGACACGCAAAACGCGUGCUCCGUUGAAUGGAGUUUAUCAUG [U56A G88A] | -3.78
17 | GGAUCUUCUCGAUCUAACAAAAAAGACAAAUCUGCCACAAAGCUUGAGAGCAUCUACGUAUGGAGAGGCGGCAGCCUUCGGUGGCGUGAUAGCGCCAACGUUCUCAACUAUGACACGCAAAACGCGUGCUCCGUUGAAUGGAGUUUAUCAUG [U56A G59U C63G C87U] | 1.72
18 | GGAUCUUCUCGAUCUAACAAAAAAGACAAAUCUGCCACAAAGCUUGAGAGCAUCUCCGGAUGCUGAGGCGGCAGCCUUCGGUGGCGCGAUAGAGUCAACGUUCUCAACUAUGACACGCAAAACGCGUGCUCCCUUGAAUGGAGUUUAUCAUG [U56C A64U C93A C95U G133C] | ≤ -4.2
19 | GGAUCUUCUCGAUCUAACAAAAAAGACAAAUCUGCCACAAAGCUUGAGAGCAUCUACGGAUGCAGAGGCGGCAGCCUUCGAUGGCGCGAUAGCGCCAACGUUCUCAACUAUGACACGCAAAACGCUUGCUCCGUCGACUGCAGUUUAUCAUG [U56A G81A G126U U135C A138C G141C] | ≤ -4.2

Row | Variant | polymerase ribozyme fitness (log ratio)
20 | GGAUCUUCUCGAUCUAACAAAAAAGACAAAUCUGCCACAAAGCUUGAGAGCAUCUACGGAUGCAGAGGCGGCAGCCUUCGGUGGCGCGAUAGCGCCAACUUUCUCAACUAUGACACGCAAAACGCGUGCUCCGUUGAAUGGAGUUUAUCAUG [U56A G100U] | -4.09
21 | GGAUCUUCUCGAUCUAACAAAAAAGACAAAUCUGCCACAAAGCUUGAGAGCAUCUACGGAUGCAGAGGCGGCAGCCUUCGUUGGCGCGAUAGUGCCAACGUUCUCAACUAUGACACGCAAAACGCGUGCUCCGUUGAAUGCAGUUUAUCAUG [U56A G81U C93U G141C] | -1.52
22 | GGAUCUUCUCGAUCUAACAAAAAAGACAAAUCUGCCACAAAGCUUGAGAGCAUCUCCGGAUGCAGAGGCGGCAGCCUUUGGUGGCGCGAUAGCGCCAACGUUCUCAACUAUGACACGCAAAACGCGUGCUCCGUUGAAUGGAGUUUAUCAUG [U56C C79U] | -1.8
23 | GGAUCUUCUCGAUCUAACAAAAAAGACAAAUCUGCCACAAAGCUUGAGAGCAUCUACGGAUGCAGAGGCGGCAGCCUUCGGUGGCGCGAUAGCGCCAACGUUCUCAACUAUGACACGCAAAACCCGUGCUCCGUUGAAUGGAGUUUAUCAUG [U56A G124C] | -1.68
24 | GGAUCUUCUCGAUCUAACAAAAAAGACAAAUCUGCCACAAAGCUUGAGAGCAUCUACGGAAGCAGAGGCGGCAGCCUUCGGUGGCGCGAUAGCGCCAACGUUCUCAACUAUGAGACGCAAAACGCGUGCUCCGUUGAAUGGAGUUUAUCAUG [U56A U61A C114G] | -3.96
25 | GGAUCUUCUCGAUCUAACAAAAAAGACAAAUCUGCCACAAAGCUUGAGAGCAUCUACGGAUGCAGAGGCAGCAGCCUUCGCUGGCGCGAUAGCGCCAACGUUCUCAACUAUGACACGCAAAACGCGUGCUCCGUUGAAUGGAGUUUAUCAUG [U56A G70A G81C] | ≤ -4.2
26 | GGAUCUUCUCGAUCUAACAAAAAAGACAAAUCUGCCACAAAGCUUGAGAGCAUCUACGGAUGCAGAGGCGGCAGCCUUCGGGGGCGGGAUCGCGCCAACGUUCUCAACUAUGACACGCAAAACGCGUGCUCCGUUGAAUGGAGUUUAUCAUG [U56A U82G C87G A91C] | ≤ -4.2
27 | GGAUCUUCUCGAUCUAACAAAAAAGACAAAUCUGCCACAAAGCUUGAGAGCAUCUACCGAAGCAGAGGCGGCAGCCUUCGGUGGCUAGAUAGCGCCAACUUUCUCAACUAUGACACGCAAAACGCGUGCUCCGUUGAAUGGAGUUUAUCAUG [U56A G58C U61A G86U C87A G100U] | ≤ -4.2
28 | GGAUCUUCUCGAUCUAACAAAAAAGACAAAUCUGCCACAAAGCUUGAGAGCAUCUACGGAUGCAGAGGCGGCAGCCUUCAGUGGCGCGAAAGCGCCAACGUUCUCAACUAUGACACGCAAAACGCGUGCUCCGUUGAAUGGAGUUUAUCAUG [U56A G80A U90A] | ≤ -4.2
29 | GGAUCUUCUCGAUCUAACAAAAAAGACAAAUCUGCCACAAAGCUUGAGAGCAUCUACGGAAGCAGAGGCGGCAGCCUUCGGUGGCGCGAUAGCGCCAACGUUCUCAACUAUGACACGCAAAACGCGUGCUCCGUUGAAUGGAGUUUAUCAUG [U56A U61A] | -1.51
30 | GGAUCUUCUCGAUCUAACAAAAAAGACAAAUCUGCCACAAAGCUUGAGAGCAUCUACGGAGGCAGAGGCGGCAGCCUUCGGUGGCGCGAUAGCGCCAACGUUCUCAACUAUGACACGCAAAACGCGUGCUCCGUUGAAUGGAGUUUAUCAUG [U56A U61G] | -1.7
31 | GGAUCUUCUCGAUCUAACAAAAAAGACAAAUCUGCCACAAAGCUUGAGAGCAUCUACGGAUGCAGAGGCGGCAGCCCUCGGUGGCGCGAUAGCGCCAACGUUCUCAACUAUGACACGCAAAACGCGUGCUCCGUUGAAUGGAGUUUAUCAUG [U56A U77C] | -2.93
32 | GGAUCUUCUCGAUCUAACAAAAAAGACAAAUCUGCCACAAAGCUUGAGAGCAUCUACGGAUGCAGAGGCGGCAGCCUAAGGUGGCGCGAUAGCGCCAACGUUCUCAACUAUGACACGCAAAACGCGUGCUCCGUUGAAUGGAGUUUAUCAUG [U56A U78A C79A] | ≤ -4.2
33 | GGAUCUUCUCGAUCUAACAAAAAAGACAAAUCUGCCACAAAGCUUGAGAGCAUCUACGGAUGCAGAGGCGGCAGCCUACGGUGGCGCGAUAGCGCCAACGUUCUCAACUAUGACACGCAACACGCGUGCUCCGUUGAAUGGAGUUUAUCAUG [U56A U78A A121C] | ≤ -4.2
34 | GGAUCUUCUCGAUCUAACAAAAAAGACAAAUCUGCCACAAAGCUUGAGAGCAUCUACGGAUGCAGAGGCGGCAGCCUUCGGUGGCGCGAGAGCGCCAACGUUCUCAACUAUGACACGCAAAACGCGUGCUCCGUUGAAUGGAGUUUAUCAUG [U56A U90G] | ≤ -4.2
35 | GGAUCUUCUCGAUCUAACAAAAAAGACAAAUCUGCCACAAAGCUUGAGAGCAUCUACGGAGGCAAAGGCGGCAGCCUUCGGUGGAACGAUAGCGCCAACGUUCUCAACUAUGACACGCAAUACGCGAGCUCCGUUGAAUGGAGUUUAUCAUG [U56A U61G G65A C85A G86A A121U U127A] | ≤ -4.2
36 | GGAUCUUCUCGAUCUAACAAAAAAGACAAAUCUGCCACAAAGCUUGAGAGCAUCUACGGAUGCAGAGGCGGCAACCUUCGGUGGCGCGAUAGCGCCAACGUUCUCAACUAUGACACGCAAAACGCGUGCUCCGUUGAGUGGAGUUUAUCAUG [U56A G74A A138G] | ≤ -4.2
37 | GGAUCUUCUCGAUCUAACAAAAAAGACAAAUCUGCCACAAAGCUUGAGAGCAUCUACGGAUGCAGAGGCGGCAGCCUUCGGUGGCGCGAUAGCGCCAACGUUCUCAACUAUGACACGCAAAACGCGUGCUCCGUUGAAUGUAGUUUAUCAUG [U56A G141U] | 0.137
38 | GGAUCUUCUCGAUCUAACAAAAAAGACAAAUCUGCCACAAAGCUUGAGAGCAUCUACGGAUGCAGAGGCGGCAGCCUUCGGUGGCGCGAUAGCGCCAACGUUCUCAACUAUGACACGCAAAACGCUUGCUCCGUUGAAUGGAGUUUAUCAUG [U56A G126U] | 0.137
